Laboratory results published in patent US20230000950A1, “COMPOSITION COMPRISING GLUCAGON AND GLP-1 AND GIP RECEPTOR DUAL AGONIST AND THERAPEUTIC USE OF SAME” (HANMI PHARM. CO., LTD., priority 2019, published 2023).
Where two headings read alike, the source gives them in different places. Positions of bridges follow the written chain, without caps; N, C: chain ends. Non-standard residues stand in square brackets, D forms with d. No end group written: not given here. Aib = CC(C)(N)C(=O)O

What was measured:
[1] = cited from earlier work
human glucagon receptor = human glucagon receptor (human, UniProt P47871 26-477); test: cell-based or functional assay
human glucagon receptor, sequence (P47871 26-477): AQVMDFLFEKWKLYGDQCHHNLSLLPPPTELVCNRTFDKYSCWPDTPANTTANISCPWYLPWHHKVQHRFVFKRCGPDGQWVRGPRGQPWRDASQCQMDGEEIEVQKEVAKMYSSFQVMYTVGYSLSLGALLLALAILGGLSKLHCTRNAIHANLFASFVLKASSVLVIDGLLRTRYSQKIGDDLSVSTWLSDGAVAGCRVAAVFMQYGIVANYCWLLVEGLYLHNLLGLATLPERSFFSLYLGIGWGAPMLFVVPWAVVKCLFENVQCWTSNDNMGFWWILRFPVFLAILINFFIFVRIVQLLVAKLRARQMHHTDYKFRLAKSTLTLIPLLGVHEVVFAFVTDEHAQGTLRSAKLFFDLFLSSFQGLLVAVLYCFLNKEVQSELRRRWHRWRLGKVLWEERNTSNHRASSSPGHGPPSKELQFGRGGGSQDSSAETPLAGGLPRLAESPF

For CCCCCCCCCCC[C@@H](C[C@@H]1OC(=O)[C@H]1CCCCCC)OC(=O)[C@H](CC(C)C)NC=O [orlistat], the “body weight loss effect” value ([1]; taken for one year) is given as “about 4 kg”.

In the case of contrave, the side effects ([1]; in vivo) is given as “cardiovascular side effects”.

For CC(C)CC(N(C)C)C1(c2ccc(Cl)cc2)CCC1 (centres unmarked) [sibutramine], the side effects ([1]; reported) is listed as “cardiovascular side effects”.

In the case of Cc1c(C(=O)NN2CCCCC2)nn(-c2ccc(Cl)cc2Cl)c1-c1ccc(Cl)cc1 [rimonabant], the side effects ([1]; reported) is listed as “central nervous system side effects”.

B1: glucagon derivative of SEQ ID NO: 12 (peptide)
peptide: Y[Aib]QGTFTSDYSKYLDEKRAKEFVQWLMNTC
modifications: lactam 16-20
For B1, the “In vitro activity (relative activity to SEQ ID NO: 1, %), cAMP assay, from EC50” value (human glucagon receptor) was 56.3%.

B2: glucagon derivative of SEQ ID NO: 9 (peptide)
peptide: Y[Aib]QGTFTSDYSKYLDSCDAQDFVVWLINT
For B2, the “In vitro activity (relative activity to SEQ ID NO: 1, %), cAMP assay, from EC50” value (human glucagon receptor) was less than 0.1%.

B3: glucagon derivative of SEQ ID NO: 22 (peptide)
peptide: Y[Aib]QGTFTSDYSKYLDEKRCKEFVQWLMNT
modifications: lactam 16-20
In the case of B3, the “In vitro activity (relative activity to SEQ ID NO: 1, %), cAMP assay, from EC50” value (human glucagon receptor) is reported as 148%.

B4: glucagon derivative of SEQ ID NO: 16 (peptide)
peptide: Y[Aib]QGTFTSDYSKYLDCRRAQVFVQWLMRT
In the case of B4, the “In vitro activity (relative activity to SEQ ID NO: 1, %), cAMP assay, from EC50” value (human glucagon receptor) is reported as 4.2%.

B5: glucagon derivative of SEQ ID NO: 32 (peptide)
peptide: SQGTFTSDYSKYLDECRAKEFVQWLMNT
modifications: lactam 15-19
For B5, the “In vitro activity (relative activity to SEQ ID NO: 1, %), cAMP assay, from EC50” value (human glucagon receptor) was 0.7%.

B6: glucagon derivative of SEQ ID NO: 26 (peptide)
peptide: W[Aib]QGTFTSDYSKYLDECRAKDFVQWLMNT
modifications: lactam 16-20
With B6 the “In vitro activity (relative activity to SEQ ID NO: 1, %), cAMP assay, from EC50” value (human glucagon receptor) was 1%.

B7: glucagon derivative of SEQ ID NO: 43 (peptide)
peptide: Y[Aib]QGTFTSDCSKYLDSRRAQDFVQWLMNT
For B7, the “In vitro activity (relative activity to SEQ ID NO: 1, %), cAMP assay, from EC50” value (human glucagon receptor) was 1.6%.

B8: glucagon derivative of SEQ ID NO: 40 (peptide)
peptide: Y[Aib]QGTFVSDYSKYLDERRAKDFVQWLMNTC
modifications: lactam 16-20
For B8, the “In vitro activity (relative activity to SEQ ID NO: 1, %), cAMP assay, from EC50” value (human glucagon receptor) was 40.8%.

B9: glucagon derivative of SEQ ID NO: 20 (peptide)
peptide: Y[Aib]QGTFTSDYSKYLDECRAKEFVQWLMNT
modifications: lactam 16-20
In the case of B9, the “In vitro activity (relative activity to SEQ ID NO: 1, %), cAMP assay, from EC50” value (human glucagon receptor) is reported as 300%.

B10: glucagon derivative of SEQ ID NO: 44 (peptide)
peptide: YXQGTFTSDYSKYLDSRRAQDFVQWLMNTC
modifications: X at position 2 = aminoisobutyric acid (Aib)
In the case of B10, the “In vitro activity (relative activity to SEQ ID NO: 1, %), cAMP assay, from EC50” value (human glucagon receptor) is reported as 75.4%.

B11: glucagon derivative of SEQ ID NO: 38 (peptide)
peptide: Y[Aib]QGTFCSDYSKYLDERRAKEFVQWLMNT
modifications: lactam 16-20
In the case of B11, the “In vitro activity (relative activity to SEQ ID NO: 1, %), cAMP assay, from EC50” value (human glucagon receptor) is reported as 167%.

B12: glucagon derivative of SEQ ID NO: 2 (peptide)
peptide: HSQGTFTSDYSKYLDCDRAQDFVQWLMNT
In the case of B12, the “In vitro activity (relative activity to SEQ ID NO: 1, %), cAMP assay, from EC50” value (human glucagon receptor) is reported as 0.6%.

B13: glucagon derivative of SEQ ID NO: 5 (peptide)
peptide: HSQGTFTSDYSKYLDSCEAQDFVQWLMNT
With B13 the “In vitro activity (relative activity to SEQ ID NO: 1, %), cAMP assay, from EC50” value (human glucagon receptor) was 0.3%.

B14: glucagon derivative of SEQ ID NO: 34 (peptide)
peptide: W[Aib]QGTFTSDYSKYCDERRAKEFVQWLMNT
modifications: lactam 16-20
For B14, the “In vitro activity (relative activity to SEQ ID NO: 1, %), cAMP assay, from EC50” value (human glucagon receptor) was 0.2%.

B15: glucagon derivative of SEQ ID NO: 4 (peptide)
peptide: HSQGTFTSDYSKYLDSCDAQDFVQWLMNT
For B15, the “In vitro activity (relative activity to SEQ ID NO: 1, %), cAMP assay, from EC50” value (human glucagon receptor) was less than 0.1%.

B16: glucagon derivative of SEQ ID NO: 8 (peptide)
peptide: Y[Aib]QGTFTSDYSKYLDSCDAQDFVQWLINT
With B16 the “In vitro activity (relative activity to SEQ ID NO: 1, %), cAMP assay, from EC50” value (human glucagon receptor) was less than 0.1%.

B17: glucagon derivative of SEQ ID NO: 13 (peptide)
peptide: Y[Aib]QGTFTSDYSCYLDSRRAQDFVQWLMNT
In the case of B17, the “In vitro activity (relative activity to SEQ ID NO: 1, %), cAMP assay, from EC50” value (human glucagon receptor) is reported as 5.2%.

B18: glucagon derivative of SEQ ID NO: 27 (peptide)
peptide: Y[Aib]QGTFVSDYSKYLDECRAKDFVQWLMNT
modifications: lactam 16-20
With B18 the “In vitro activity (relative activity to SEQ ID NO: 1, %), cAMP assay, from EC50” value (human glucagon receptor) was 93.6%.

B19: glucagon derivative of SEQ ID NO: 37 (peptide)
peptide: Y[Aib]QGTFTSDYSKYLDERRAKEFVQWLMNTC
modifications: lactam 16-20
In the case of B19, the “In vitro activity (relative activity to SEQ ID NO: 1, %), cAMP assay, from EC50” value (human glucagon receptor) is reported as 226%.

B20: glucagon derivative of SEQ ID NO: 19 (peptide)
peptide: Y[Aib]QGTFTSDYSKYLCEKRAKEFVQWLMNT
modifications: lactam 16-20
For B20, the “In vitro activity (relative activity to SEQ ID NO: 1, %), cAMP assay, from EC50” value (human glucagon receptor) was 12.1%.

B21: glucagon derivative of SEQ ID NO: 36 (peptide)
peptide: Y[Aib]QGTFTSDCSKYLDERRAKEFVQWLMNT
modifications: lactam 16-20
In the case of B21, the “In vitro activity (relative activity to SEQ ID NO: 1, %), cAMP assay, from EC50” value (human glucagon receptor) is reported as 9.9%.

B22: glucagon derivative of SEQ ID NO: 6 (peptide)
peptide: HSQGTFTSDYSKYLDSCEADDFVQWLMNT
For B22, the “In vitro activity (relative activity to SEQ ID NO: 1, %), cAMP assay, from EC50” value (human glucagon receptor) was less than 0.1%.

B23: glucagon derivative of SEQ ID NO: 33 (peptide)
peptide: YXQGTFTSDYSKYLDSRRAQDFVQWLMNT
modifications: X at position 2 = aminoisobutyric acid (Aib)
With B23 the “In vitro activity (relative activity to SEQ ID NO: 1, %), cAMP assay, from EC50” value (human glucagon receptor) was 108%.

B24: glucagon derivative of SEQ ID NO: 3 (peptide)
peptide: HSQGTFTSDYSKYLDCERAQDFVQWLMNT
For B24, the “In vitro activity (relative activity to SEQ ID NO: 1, %), cAMP assay, from EC50” value (human glucagon receptor) was 6.1%.

B25: glucagon derivative of SEQ ID NO: 24 (peptide)
peptide: Y[Aib]QGTFTSDYSKCLDEKRAKEFVQWLMNT
modifications: lactam 16-20
For B25, the “In vitro activity (relative activity to SEQ ID NO: 1, %), cAMP assay, from EC50” value (human glucagon receptor) was 58%.

B26: glucagon derivative of SEQ ID NO: 11 (peptide)
peptide: Y[Aib]QGTFTSDYSKYLDEKCAKEFVQWLMNT
For B26, the “In vitro activity (relative activity to SEQ ID NO: 1, %), cAMP assay, from EC50” value (human glucagon receptor) was 4.6%.

B27: glucagon derivative of SEQ ID NO: 28 (peptide)
peptide: W[Aib]QGTFVSDYSKYLDECRAKDFVQWLMNT
modifications: lactam 16-20
With B27 the “In vitro activity (relative activity to SEQ ID NO: 1, %), cAMP assay, from EC50” value (human glucagon receptor) was less than 0.1%.

B28: glucagon derivative of SEQ ID NO: 41 (peptide)
peptide: Y[Aib]QGTFCSDYSKYLDERRAKDFVQWLMNT
modifications: lactam 16-20
For B28, the “In vitro activity (relative activity to SEQ ID NO: 1, %), cAMP assay, from EC50” value (human glucagon receptor) was 45.2%.

B29: glucagon derivative of SEQ ID NO: 17 (peptide)
peptide: Y[Aib]QGTFTSDYSKYLDCVRAQDFVQWLMRT
For B29, the “In vitro activity (relative activity to SEQ ID NO: 1, %), cAMP assay, from EC50” value (human glucagon receptor) was 23.2%.

B30: glucagon derivative of SEQ ID NO: 23 (peptide)
peptide: Y[Aib]QGTFTSDYSKYCDEKRAKEFVQWLMNT
modifications: lactam 16-20
With B30 the “In vitro activity (relative activity to SEQ ID NO: 1, %), cAMP assay, from EC50” value (human glucagon receptor) was 76.8%.

B31: glucagon derivative of SEQ ID NO: 42 (peptide)
peptide: Y[Aib]QGTFCSDYSKYLDSRRAQDFVQWLMNT
For B31, the “In vitro activity (relative activity to SEQ ID NO: 1, %), cAMP assay, from EC50” value (human glucagon receptor) was 37.9%.

B32: glucagon derivative of SEQ ID NO: 30 (peptide)
peptide: W[Aib]QGTFTSDYSKCLDERRAKDFVQWLMNT
modifications: lactam 16-20
With B32 the “In vitro activity (relative activity to SEQ ID NO: 1, %), cAMP assay, from EC50” value (human glucagon receptor) was 0.3%.

B33: glucagon derivative of SEQ ID NO: 14 (peptide)
peptide: Y[Aib]QGTFTSDYSKYLDCKRAKEFVQWLMNT
With B33 the “In vitro activity (relative activity to SEQ ID NO: 1, %), cAMP assay, from EC50” value (human glucagon receptor) was 18.1%.

B34: glucagon derivative of SEQ ID NO: 29 (peptide)
peptide: Y[Aib]QGTFTSDYSKCLDERRAKDFVQWLMNT
modifications: lactam 16-20
With B34 the “In vitro activity (relative activity to SEQ ID NO: 1, %), cAMP assay, from EC50” value (human glucagon receptor) was 61.3%.

B35: glucagon derivative of SEQ ID NO: 18 (peptide)
peptide: Y[Aib]QGTFTSDYSKYLDSRRACDFRLWLMNT
In the case of B35, the “In vitro activity (relative activity to SEQ ID NO: 1, %), cAMP assay, from EC50” value (human glucagon receptor) is reported as less than 0.1%.

B36: glucagon derivative of SEQ ID NO: 21 (peptide)
peptide: Y[Aib]QGTFTSDYSKYLDEKCAKEFVQWLMNT
modifications: lactam 16-20
With B36 the “In vitro activity (relative activity to SEQ ID NO: 1, %), cAMP assay, from EC50” value (human glucagon receptor) was 57.8%.

B37: glucagon derivative of SEQ ID NO: 35 (peptide)
peptide: Y[Aib]QGTFTSDYSKYCDERRAKEFVQWLMNT
modifications: lactam 16-20
In the case of B37, the “In vitro activity (relative activity to SEQ ID NO: 1, %), cAMP assay, from EC50” value (human glucagon receptor) is reported as 17.7%.

B38: glucagon derivative of SEQ ID NO: 39 (peptide)
peptide: Y[Aib]QGTFVSDCSKYLDERRAKDFVQWLMNT
modifications: lactam 16-20
With B38 the “In vitro activity (relative activity to SEQ ID NO: 1, %), cAMP assay, from EC50” value (human glucagon receptor) was 3.7%.

B39: glucagon derivative of SEQ ID NO: 10 (peptide)
peptide: Y[Aib]QGTFTSDYSKYLDSCDADDFVVWLINT
In the case of B39, the “In vitro activity (relative activity to SEQ ID NO: 1, %), cAMP assay, from EC50” value (human glucagon receptor) is reported as less than 0.1%.

B40: glucagon derivative of SEQ ID NO: 45 (peptide)
peptide: Y[Aib]QGTFTSDYSCYLDEKRAKEFVQWLMNT
In the case of B40, the “In vitro activity (relative activity to SEQ ID NO: 1, %), cAMP assay, from EC50” value (human glucagon receptor) is reported as 5.2%.

B41: glucagon derivative of SEQ ID NO: 7 (peptide)
peptide: YSQGTFTSDYSKYLDSCEADDFVQWLMNT
In the case of B41, the “In vitro activity (relative activity to SEQ ID NO: 1, %), cAMP assay, from EC50” value (human glucagon receptor) is reported as less than 0.1%.

B42: glucagon derivative of SEQ ID NO: 25 (peptide)
peptide: Y[Aib]QGTFTSDYSKYLDEKRAKCFVQWLMNT
modifications: lactam 16-20
For B42, the “In vitro activity (relative activity to SEQ ID NO: 1, %), cAMP assay, from EC50” value (human glucagon receptor) was 46.9%.

B43: glucagon derivative of SEQ ID NO: 31 (peptide)
peptide: Y[Aib]QGTFTSDYSKYLDCKRAKEFVQWLMNT
modifications: lactam 17-21
For B43, the “In vitro activity (relative activity to SEQ ID NO: 1, %), cAMP assay, from EC50” value (human glucagon receptor) was 6.3%.
